In the supplement of paper PMC10724198:
± gives the standard deviation of the averaged measurements.

Tested on: Saccharomyces cerevisiae
Assay: protein stability index of tFT-peptide fusion (C-terminal peptide) (PSI (0-1 scale)); higher = more stable (slower turnover)
Details: genetic background: wild type; temperature: 30 C
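Also: PSI is a weighted mean of sequencing reads over stability bins, variants kept only with over 10 reads, mCherry proximal and sfGFP distal, peptide attached via GGGS linker.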

| Sequence | protein stability index |
| --- | --- |
| SFRPPPPSSFPA | 0.745 ± 0.019 |
| SFSFLLSLSFLP | 0.529 ± 0.017 |
| SFSLAGFVCCVI | 0.6002 ± 0.0045 |
| SFSSHRSPPPPL | 0.698 ± 0.13 |
| SFSSPPPTLVPP | 0.693 ± 0.038 |
| SFTSSFPGSSPS | 0.703 ± 0.058 |
| SFVLFAGPVFFW | 0.655 ± 0.025 |
| SFVSRSRLAEVD | 0.682 ± 0.073 |
| SFYFSAFYPSIV | 0.667 ± 0.013 |
| SFYIMSIQRKAK | 0.681 ± 0.052 |
| SGASFLKVGLSV | 0.6812 ± 0.0032 |
| SGASPSPPRTLS | 0.7493 ± 0.0017 |
| SGAVGSTNYGTR | 0.743 ± 0.018 |
| SGAVVIPCTFER | 0.669 ± 0.025 |
| SGGCGWGAGVRV | 0.778 ± 0.02 |
| SGGGSSSGKGIR | 0.715 ± 0.091 |
| SGGRCVGVGGVV | 0.658 ± 0.028 |
| SGGRPVQSWCAW | 0.779 ± 0.29 |
| SGGSGGSCMRYV | 0.691 ± 0.025 |
| SGLERGCSRCWH | 0.687 ± 0.0088 |
| SGLSFPPLYSLL | 0.715 ± 0.092 |
| SGLVCDGSSGGV | 0.635 ± 0.0083 |
| SGRPEGERAPEQ | 0.728 ± 0.06 |
| SGRVGRGAADWR | 0.681 ± 0.029 |
| SGRVMRAFSCGV | 0.6228 ± 0.0036 |

| Sequence | protein stability index |
| --- | --- |
| SGSFAIYCSVSF | 0.611 ± 0.045 |
| SGSGCSDRRPSR | 0.699 ± 0.02 |
| SGSSIAVLPTPC | 0.747 ± 0.11 |
| SGTFACCLGVCL | 0.6806 ± 0.0062 |
| SGVILWSAWRDG | 0.7029 ± 0.0014 |
| SGVLSLVDVWTG | 0.747 ± 0.1 |
| SGVRAAGEGDSE | 0.735 ± 0.033 |
| SGVRGRGSFWSV | 0.664 ± 0.04 |
| SHHSVNWKPQGL | 0.668 ± 0.025 |
| SHIAIEKLHSKN | 0.709 ± 0.056 |
| SHPTLCSFSPPA | 0.686 ± 0.035 |
| SHRRSMTNNKAK | 0.705 ± 0.01 |
| SIFVNICRRMKC | 0.616 ± 0.014 |
| SIIIRVTQSGSG | 0.6414 ± 0.0056 |
| SIIRDKERNNYK | 0.654 ± 0.015 |
| SIISRVLDAMAK | 0.724 ± 0.21 |
| SILQINRDNVMR | 0.742 ± 0.02 |
| SILWRCEEEIRR | 0.736 ± 0.029 |
| SINPRVYFVDCQ | 0.689 ± 0.034 |
| SIPSPLVPPLTR | 0.72 ± 0.04 |
| SIPVHGPCNRVV | 0.671 ± 0.025 |
| SIRTKVVRNVVS | 0.625 ± 0.087 |
| SKKNKNIQKHLY | 0.728 ± 0.011 |
| SKKSKTQSNKNQ | 0.683 ± 0.02 |
| SKPTQQNRRPDG | 0.596 ± 0.028 |

| Sequence | protein stability index |
| --- | --- |
| SKQNNIEMKKYK | 0.741 ± 0.036 |
| SKTQRAQSGNSA | 0.699 ± 0.054 |
| SLAGLLPCRLTP | 0.621 ± 0.023 |
| SLAGWPPPSIST | 0.686 ± 0.013 |
| SLAPLPLIVLFL | 0.487 ± 0.023 |
| SLCCPLHQTRFR | 0.684 ± 0.046 |
| SLDLALLSPFFG | 0.679 ± 0.029 |
| SLENRFGGFYVG | 0.749 ± 0.066 |
| SLEWGGGRRWPI | 0.719 ± 0.023 |
| SLFPPPLLLSAS | 0.574 ± 0.0095 |
| SLFSFLPRLYSH | 0.627 ± 0.023 |
| SLFSVLSPPYPS | 0.653 ± 0.032 |
| SLGAHHAAFRVV | 0.63 ± 0.044 |
| SLGGCVMCGTTL | 0.708 ± 0.029 |
| SLGGLVSGPGLV | 0.687 ± 0.032 |
| SLGGRVAGGWRD | 0.645 ± 0.1 |
| SLGLALSLRSSV | 0.6361 ± 0.0054 |
| SLGLHADLLSRT | 0.672 ± 0.064 |
| SLGNTRRTKKSI | 0.636 ± 0.054 |
| SLGRYVDCLLGC | 0.6463 ± 0.0044 |
| SLGVVSHGASRP | 0.693 ± 0.027 |
| SLHPPPPPFRLS | 0.753 ± 0.014 |
| SLHSTPRPPAPG | 0.705 ± 0.063 |
